Results on one protein are retold here after publication doi:10.1101/2020.08.23.263558 (bioRxiv, 2020).

This data set deals with the molecule itself. Briefly: cryo-EM structure.

B1: full length human Top2α (1-1531) (enzyme)
chain: MEVSPLQPVNENMQVNKIKKNEDAKKRLSVERIYQKKTQLEHILLRPDTYIGSVELVTQQMWVYDEDVGINYREVTFVPGLYKIFDEILVNAADNKQRDPKMSCIRVTIDPENNLISIWNNGKGIPVVEHKVEKMYVPALIFGQLLTSSNYDDDEKKVTGGRNGYGAKLCNIFSTKFTVETASREYKKMFKQTWMDNMGRAGEMELKPFNGEDYTCITFQPDLSKFKMQSLDKDIVALMVRRAYDIAGSTKDVKVFLNGNKLPVKGFRSYVDMYLKDKLDETGNSLKVIHEQVNHRWEVCLTMSEKGFQQISFVNSIATSKGGRHVDYVADQIVTKLVDVVKKKNKGGVAVKAHQVKNHMWIFVNALIENPTFDSQTKENMTLQPKSFGSTCQLSEKFIKAAIGCGIVESILNWVKFKAQVQLNKKCSAVKHNRIKGIPKLDDANDAGGRNSTECTLILTEGDSAKTLAVSGLGVVGRDKYGVFPLRGKILNVREASHKQIMENAEINNIIKIVGLQYKKNYEDEDSLKTLRYGKIMIMTDQDQDGSHIKGLLINFIHHNWPSLLRHRFLEEFITPIVKVSKNKQEMAFYSLPEFEEWKSSTPNHKKWKVKYYKGLGTSTSKEAKEYFADMKRHRIQFKYSGPEDDAAISLAFSKKQIDDRKEWLTNFMEDRRQRKLLGLPEDYLYGQTTTYLTYNDFINKELILFSNSDNERSIPSMVDGLKPGQRKVLFTCFKRNDKREVKVAQLAGSVAEMSSYHHGEMSLMMTIINLAQNFVGSNNLNLLQPIGQFGTRLHGGKDSASPRYIFTMLSSLARLLFPPKDDHTLKFLYDDNQRVEPEWYIPIIPMVLINGAEGIGTGWSCKIPNFDVREIVNNIRRLMDGEEPLPMLPSYKNFKGTIEELAPNQYVISGEVAILNSTTIEISELPVRTWTQTYKEQVLEPMLNGTEKTPPLITDYREYHTDTTVKFVVKMTEEKLAEAERVGLHKVFKLQTSLTCNSMVLFDHVGCLKKYDTVLDILRDFFELRLKYYGLRKEWLLGMLGAESAKLNNQARFILEKIDGKIIIENKPKKELIKVLIQRGYDSDPVKAWKEAQQKVPDEEENEESDNEKETEKSDSVTDSGPTFNYLLDMPLWYLTKEKKDELCRLRNEKEQELDTLKRKSPSDLWKEDLATFIEELEAVEAKEKQDEQVGLPGKGGKAKGKKTQMAEVLPSPRGQRVIPRITIEMKAEAEKKNKKKIKNENTEGSPQEDGVELEGLKQRLEKKQKREPGTKTKKQTTLAFKPIKKGKKRNPWSDSESDRSSDESNFDVPPRETEPRRAATKTKFTMDLDSDEDFSDFDEKTDDEDFVPSDASPPKTKTSPKLSNKELKPQKSVVSDLEADDVKGSVPLSSSPPATHFPDETEITNPVPKKNVTVKKTAAKSQSSTSTTGAKKRAAPKGTKRDPALNSGVSQKPDPAKTKNRRKRKPSTSDDSDSNFEKIVSKAVTSKKSKGESDDFHMDFDSAVAPRAKSVRAKKPIKYLEESDEDDLF
As usually defined, the stoichiometry N is a count of units in the complex or per binding partner. With B1, the “stoichiometry N” value amounted to 2.
